The record followed here is PMC11789017, “Preventing inappropriate signals pre- and post-ligand perception by a toggle switch mechanism of ERECTA” (Proceedings of the National Academy of Sciences of the …, 2025).

Residue numbers refer to the chain shown, from its start. In names and notes the source's numbering stands.

Sequences and labels used below:
T1: GST-PUB30 (U-box E3 ligase PUB30) (UniProt Q058P4 1-448)
T1 construct: plant U-box (PUB) E3 ubiquitin ligase PUB30; Tag end from the order of the printed name; source: recombinantly purified; not shown: GST, N-terminal, kept
T1 sequence (looked up): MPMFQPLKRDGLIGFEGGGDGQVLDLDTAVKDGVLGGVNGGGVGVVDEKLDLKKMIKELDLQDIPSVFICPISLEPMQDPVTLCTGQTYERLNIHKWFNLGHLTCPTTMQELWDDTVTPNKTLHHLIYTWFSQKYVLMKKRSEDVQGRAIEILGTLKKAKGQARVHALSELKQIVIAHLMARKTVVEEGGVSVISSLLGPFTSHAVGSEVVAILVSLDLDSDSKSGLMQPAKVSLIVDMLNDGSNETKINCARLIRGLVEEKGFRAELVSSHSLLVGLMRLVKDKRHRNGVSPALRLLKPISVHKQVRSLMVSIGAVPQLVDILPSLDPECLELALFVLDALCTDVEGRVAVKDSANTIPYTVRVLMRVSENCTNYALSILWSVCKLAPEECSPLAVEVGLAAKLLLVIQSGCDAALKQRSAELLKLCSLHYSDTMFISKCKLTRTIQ

T2: MBP-ER_CD_(T/S8A), phosphonull version (Arabidopsis, UniProt Q42371 602-976, Thr947 (T/S8A) | Ser950 (T/S8A) | Ser954 (T/S8A) | Ser955 (T/S8A) | Ser957 …)
T2 construct: ERECTA (ER), Arabidopsis, cytoplasmic domain with the eight phosphosites of the C-terminal tail changed to alanine; Tag end from the order of the printed name; source: recombinant, purified; not shown: MBP, N-terminal, kept
T2 sequence (looked up): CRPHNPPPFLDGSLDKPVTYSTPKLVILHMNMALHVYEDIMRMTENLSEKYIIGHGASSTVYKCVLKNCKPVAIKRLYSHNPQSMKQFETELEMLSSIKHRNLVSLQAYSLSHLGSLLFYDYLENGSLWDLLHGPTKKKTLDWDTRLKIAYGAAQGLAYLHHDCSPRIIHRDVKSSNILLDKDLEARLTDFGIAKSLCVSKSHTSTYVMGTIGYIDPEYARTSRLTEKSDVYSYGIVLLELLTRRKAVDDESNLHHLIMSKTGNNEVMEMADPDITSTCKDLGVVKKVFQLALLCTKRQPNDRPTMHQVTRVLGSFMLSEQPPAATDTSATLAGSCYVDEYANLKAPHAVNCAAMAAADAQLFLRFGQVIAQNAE

T3: MBP-ER_CD_(T/S8E), phosphomimetic version (Arabidopsis, UniProt Q42371 602-976, Thr947 (T/S8E) | Ser950 (T/S8E) | Ser954 (T/S8E) | Ser955 (T/S8E) | Ser957 …)
T3 sequence: T2 sequence (looked up) with A346E, A349E, A353E, A354E, A356E, A358E, A371E, A374E

T4: MBP-ER_CD_(T/S8A), phosphonull version (Arabidopsis, UniProt Q42371 602-976, Thr947 (T/S8A) | Ser950 (T/S8A) | Ser954 (T/S8A) | Ser955 (T/S8A) | Ser957 …)
T4 sequence: T2 sequence (looked up)

B1: MBP-fused full-length ER cytoplasmic domain (MBP-ER_CD) (domain or fragment, Arabidopsis, UniProt Q42371 602-976, looked up)
chain: T2 sequence (looked up) with A346T, A349S, A353S, A354S, A356S, A358S, A371S, A374S
notes: ERECTA (ER) receptor kinase, Arabidopsis, cytoplasmic domain (juxtamembrane domain, kinase domain and C-terminal tail); source: recombinant, expressed and purified; not shown: MBP, N-terminal, kept
B2: MBP-ER_CD_(T/S8E), phosphomimetic version (domain or fragment, Arabidopsis, UniProt Q42371 602-976, looked up)
chain: T2 sequence (looked up) with A346E, A349E, A353E, A354E, A356E, A358E, A371E, A374E
notes: ERECTA (ER), Arabidopsis, cytoplasmic domain with the eight phosphosites of the C-terminal tail changed to glutamate; Tag end from the order of the printed name; source: recombinant, purified; not shown: MBP, N-terminal, kept
B3: GST-BKI1 (BRI1 KINASE INHIBITOR 1) (natural protein, UniProt Q9FMZ0 1-337, looked up)
chain: METNLQQVKNSSQTFSEKQNPKQEASPSPISSTCSSPSHDFSFTISLQPLSSSSKHISPTLRSPSKTTSSYQQTDPFAVDLSPADEIFFHGHLLPLHLLSHLPVSPRTSTGSYNDGFTLPVKDILPDQPTNNNNNTENAITNISTEAKDDNTEDKAEGEIRVKTKPIKSFSLFGLSKWRKGFESNEREQEQQQQKIKKPMSLDLSHAVKKYIRMLFQKRGNGTQFWNRRQTSSYSFSSSLMGPNGNSKTMINGSYNKRDLIRGRRGELFSAPASMRTSPTNSGHLRVSTAGLSSSSGSTSSSSSDSTMEELQAAIQAAIAHCKNSSAVDRDDKVKDS
notes: Tag end from the order of the printed name; source: recombinantly purified; not shown: GST, N-terminal, kept
B4: GST-PUB30 (U-box E3 ligase PUB30) (enzyme)
chain: T1 sequence (looked up)

Assay [1] concerns the target GST-PUB30 (U-box E3 ligase PUB30) (UniProt Q058P4). The assay can be described thus: BLI; recombinantly purified GST-BKI1 or GST-PUB30 and MBP-ER_CD variants at seven concentrations (156.25, 312.5, 625, 1,250, 2,500, 5,000 and 10,000 nM); three independent experiments; who was immobilised is in SI Appendix. On the technique in general: BLI is a label-free optical method that tracks binding on a fibre tip over time.

For assay [2], the target named is GST-BKI1 (BRI1 KINASE INHIBITOR 1) (UniProt Q9FMZ0). The assay is described as above.
Assay [3] concerns the target T1, GST-PUB30 (U-box E3 ligase PUB30). The assay is described as above. The conditions noted are these: both partners purified.
For assay [4], the target named is T2, MBP-ER_CD_(T/S8A), phosphonull version. Described as above. The conditions noted are these: both partners purified.
For assay [5], the target named is B1. The assay is described as above. The conditions noted are these: both partners purified.
Assay [6] concerns the target T3, MBP-ER_CD_(T/S8E), phosphomimetic …. Nature of the assay: BLI.
In assay [7] the target is T4, MBP-ER_CD_(T/S8A), phosphonull version. The assay can be described thus: BLI.

As to “MBP-ER_CD_(ΔCTα-Helix) (domain or fragment)”, the dissociation constant (Kd) – broadly, a measure of binding affinity in units of concentration – in assay [1] was found to be 0.805 µM; in assay [2], 47.7 µM.

For B1, the Kd in assay [3] came to 0.393 ± 0.048 µM.

Turning to B2, the binding result in assay [3] was “binds”.

Regarding B3, the binding result in assay [4] is “binds”. Besides, the values for the Kd in assay [5], in assay [6] and in assay [7] were 3.7 ± 0.7 µM, 18 µM and 3.8 µM, respectively.

As to B4, the results for the dissociation constant (Kd) in assay [6] and in assay [7] were 0.194 µM and 9.5 µM, respectively.
